Reference: patent US20240093191A1, “COMPOSITIONS AND METHODS FOR TREATING DISEASE ASSOCIATED WITH DUX4 OVEREXPRESSION” (RESEARCH INSTITUTE AT NATIONWIDE CHILDREN'S HOSPITAL, priority 2021, published 2024)

B1: U6.mir-675H: mir-675 construct with modified flanking sequences and UA dinucleotide (nucleic acid)
DNA: TCTAGAGATCCGACGCCGCCATCTCTAGGCCCGCGCCGGCCCCCTCGCACAGACTTGTGGGAGAAGCTCGGCTACTCCCCTGCCCCGGTTAATTTGCATATAATATTTCCTAGTAACTATAGAGGCTTAATGTGCGATAAAAGACAGATAATCTGTTCTTTTTAATACTAGCTACATTTTACATGATAGGCTTGGATTTCTATAAGAGATACAAATACTAAATTATTATTTTAAAAAACAGCACAAAAGGAAACTCACCCTAACTGTAAAGTAATTGTGTGTTTTGAGACTATAAATATCCCTTGGAGAAAAGCCTTGTTTGACCGTTTAAACCCCAGGGTCTGGTGCGGAGAGGGCCCACAGTGGACTTGGTGACGCTGTATGCCCTCACCGCTCAGCCCCTGGGGCGCACGCCAGTTTTTT
B2: U6.mir-675NF: U6 mir-675 construct with no flanking sequences (nucleic acid)
DNA: TCTAGAGATCCGACGCCGCCATCTCTAGGCCCGCGCCGGCCCCCTCGCACAGACTTGTGGGAGAAGCTCGGCTACTCCCCTGCCCCGGTTAATTTGCATATAATATTTCCTAGTAACTATAGAGGCTTAATGTGCGATAAAAGACAGATAATCTGTTCTTTTTAATACTAGCTACATTTTACATGATAGGCTTGGATTTCTATAAGAGATACAAATACTAAATTATTATTTTAAAAAACAGCACAAAAGGAAACTCACCCTAACTGTAAAGTAATTGTGTGTTTTGAGACTATAAATATCCCTTGGAGAAAAGCCTTGTTTGCCCCAGGGTCTGGTGCGGAGAGGGCCCACAGTGGACTTGGTGACGCTGTATGCCCTCACCGCTCAGCCCCTGGGGTTTTTT
B3: U6.mir-675-2.3.1: mir-675 construct with modified 5' and 3' flanking sequences (nucleic acid)
DNA: TCTAGAGATCCGACGCCGCCATCTCTAGGCCCGCGCCGGCCCCCTCGCACAGACTTGTGGGAGAAGCTCGGCTACTCCCCTGCCCCGGTTAATTTGCATATAATATTTCCTAGTAACTATAGAGGCTTAATGTGCGATAAAAGACAGATAATCTGTTCTTTTTAATACTAGCTACATTTTACATGATAGGCTTGGATTTCTATAAGAGATACAAATACTAAATTATTATTTTAAAAAACAGCACAAAAGGAAACTCACCCTAACTGTAAAGTAATTGTGTGTTTTGAGACTATAAATATCCCTTGGAGAAAAGCCTTGTTTGAATCACACTGCCCCAGGGTCTGGTGCGGAGAGGGCCCACAGTGGACTTGGTGACGCTGTATGCCCTCACCGCTCAGCCCCTGGGGATAACTCCTAATCACACTTTTTT

How the values were obtained:
Type in all cases: cell-based, human
mir-675-5p [1] = assay: TaqMan QRT-PCR of mature mir-675-5p from transfected constructs in HEK293 cells; conditions: HEK293, 24 h post-transfection; for mir-675-5p levels compared to U6.mir-675: 23 mer mature mir-675-5p
Source text: (§1) RNA Extraction. RNA from HEK293 cells was extracted for Northern blot assay and QPCR. The miRVANA miRNA isolation kit (ThermoFisher Scientific) was used according to manufacturer's directions to extract total RNA encompassing small RNAs, such as miRNAs. To extract RNA from C57BL/6 skeletal muscles, cryopreserved muscles were crushed under suboptimal temperatures using liquid nitrogen and using mortar and pestle. Crushed muscles were then lysed using […] of miRVANA miRNA isolation kit lysis buffer, a TissueLyser and 1.0 mm zirconia beads (Biospec). Muscle was homogenized at 30 Hz for 30 sec with 10 sec rest. This was repeated 3 times.
(§2) TaqMan Gene Expression Assay. QRT-PCR was carried out to quantify the expression of pri-mir-675, mir-675-5p and mi405 using TaqMan probes (ThermoFisher Scientific). Experiments were started by eliminating genomic DNA from the RNA preparations, and then cDNA was generated using the High-Capacity cDNA Reverse Transcription Kit (Applied Biosystems) following manufacturer's instructions. Within the same cDNA reaction, 1×RT random hexamer primers were used to generate the cDNA for RPL13A, used as a reference gene, and for pri-mir-675. To generate the cDNA for mir-675, the RT mir-675 reverse primer provided by ThermoFisher Scientific was used. For mi405, the mi405 qPCR protocol was done as it was previously described [Wallace et al., Mol. Ther. Methods Clin. Dev. 8: 121-30 (2018)]. To quantify mir-675 and mi405 levels, RNA was extracted using the total RNA protocol for the mirVana miRNA Isolation Kit (Ambion) from HEK293 cells. cDNA was generated using the High-Capacity cDNA Reverse Transcription Kit (Applied Biosystems) using a mix of random hexamer primers and specific reverse primer for pri-mir-675 and mir-675-5p. For mi405, 200 nM of the stem-loop forming primer (5′-[…]-3′) (SEQ ID NO: 144) was also used for the RT step. A custom TaqMan assay (Applied Biosystems) including 1.5 μM of Forward primer (5′-[…]-3′) (SEQ ID NO: 145), 0.7 μM of Reverse primer (5′-GTGCAGGGTCCGAGGT-3′) (SEQ ID NO: 146), and 0.2 μM of mi405 probe (5′-6FAM-ATACGACGTCCAGGAT-3′) (SEQ ID NO: 147) was then run using the CFX Connect Real Time system apparatus (Bio-Rad). RPL13A (Mm02526700_g1; Applied Biosystems) served as the reference gene. The TaqMan gene expression assay consisted of using the TaqMan Gene Expression Master mix and TaqMan probes purchased from ThermoFisher Scientific. 1× of probe was mixed with 1× of the TaqMan Gene Expression Master mix (ThermoFisher Scientific), and with 20 ng of cDNA. The mir-675- and mi405-specific primers and probes were designed to quantify only the mir-675-5p and mi405 mature sequence (see TaqMan Gene Expression Master mix protocol).

DUX4 protein = assay: Western blot of V5-tagged DUX4 protein in co-transfected HEK293 cells; conditions: CMV.DUX4-FL/CMV.eGFP, HEK293, molar ratio 1 to 3, eGFP normalizer, relative to U6-milacZ, N = 3-8
mir-675-5p [2] = assay: ddPCR of all mature mir-675-5p sequences (TaqMan Advanced miRNA cDNA synthesis) in HEK293 cells
Protocol: Digital Droplet PCR (ddPCR). For mir-675 and mi405 constructs, RNA extraction was carried out as described for QPCR above. For cDNA synthesis, the TaqMan advanced cDNA synthesis kit (Thermo Fisher) was used and cDNA was prepared by following manufacturer's instructions. ddPCR was carried out using 1× ddPCR Supermix for probes (No dUTP) (Bio-Rad), 1× commercially available mir-675 advanced TaqMan probe, or a custom made mi405 advanced TaqMan probe (ThermoFisher) and 50 ng of cDNA. For DUX4 cDNA synthesis, the High-Capacity cDNA Reverse Transcription Kit (Applied Biosystems) was used according to manufacturer's instructions. Within the same cDNA reaction, 1×RT random hexamer primers and 25 pmoles of the Oligo(dT) primer were used to generate cDNA for DUX4 and DUX4-responsive biomarkers and for mouse Rpl13A, used as a reference gene. To quantify DUX4, the ddPCR reaction mixture (20 μL) contained 1× ddPCR Evagreen Supermix (Bio-Rad), 1 μM of forward and reverse DUX4 primers (Sharma et al., J Genet Syndr Gene Ther 2016 August; 7(4):303. doi: 10.4172/2157-7412.1000303. Epub 2016 Aug. 8), and 50 ng of cDNA. To quantify Rpl13A and DUX4-responsive biomarkers (Trim36 and Wfdc3), the 1× ddPCR Supermix for probes (No dUTP) and TaqMan specific probes were used for each of the genes. Droplets were generated using the Automatic Droplet generator QX200 AutoDG (Bio-Rad), the reactions were amplified in a C1000 Touch™ Thermal Cycler with 96-Deep Well Reaction Module (Bio-Rad). Cycling conditions were set up following the QX200 ddPCR Evagreen Supermix protocol. All assays are compatible with an annealing temperature of 58° C. Droplets were then read using the QX200 droplet reader (Bio-Rad). Finally, data were analyzed using the QuantaSoft analysis software (Bio-Rad). For quantification, each reaction of 20 μL was estimated to give at least 10,000 acceptable droplets.
In order to quantify the level of all these mature sequences, the TaqMan advanced miRNA cDNA synthesis method that uses universal reverse transcription (RT) chemistry to synthesize cDNA templates that can be quantified using the TaqMan Advanced miRNA probes was used. In this method, most of the processed mature miRNA sequences were quantified.

pri-mir-675 = assay: TaqMan QRT-PCR of pri-mir-675 from transfected constructs in HEK293 cells; conditions: 24 h post-transfection
Source text: as §1, §2

mir-675-5p [3] = assay: Small-transcript northern blot of mir-675 processing in HEK293 cells; conditions: HEK293; anti-mir-675-5p biotinylated probe
Source text: Small-Transcript Northern Blots. […] (SEQ ID NO: 148)).

| Molecule | mir-675-5p levels compared to U6.mir-675 (mir-675-5p [1]) | ratio of mir-675-5p/pri-mir-675 compared to U6.mir-675 (mir-675-5p [1]) | Average inhibition efficiency (%) of DUX4 protein levels (DUX4 protein) | Average inhibition efficiency (%) of DUX4 protein levels (DUX4 protein; listed as U6-mir-675H) | fold change of all mature mir-675-5p sequences compared to U6.mir-675 (mir-675-5p [2]) | pri-mir-675 levels compared to U6.mir-675 (pri-mir-675) | mature mir-675-5p bands on northern blot (mir-675-5p [3]) |
| --- | --- | --- | --- | --- | --- | --- | --- |
| B1 | 774±93% | 303±57% | 89±6% | 89 ± 6 (N = 3) % | 201±38% | 256±37% |  |
| B2 |  |  | 69 ± 6 (N = 5) % |  | 176±60% | 213±28% | detectable mir-675 mature sequences |
| B3 | 241±29% |  | 58 ± 8 (N = 3) % |  | 187±40% | 274±49% |  |
